Experimental findings from EP0811064B1 are described below.

The target of test [1] is full length human mpl receptor expressed on 32D-mpl cells (human) (UniProt P40238). In words: cell-based or functional assay.
Test [2] has the same target. As to the kind of experiment: cell-based or functional assay. The source holds these as a separate data set.

“And” between values parts separate entries of the source, which are not always exact repeats. Identical values can stand only once. Like-named read-outs stand apart in the source and are kept apart here.

Turning to Met-Lys-mpl ligand 1-174 (E. coli), the IN VITRO ACTIVITY U/mg X10E6 in test [1] came to 1.3e+07 U/mg. Consider human mpl ligand 1-163 (CHO), for which the IN VITRO ACTIVITY U/mg X10E6 in test [1] stood at 8.6e+07 U/mg.

In turn, human mpl ligand 1-332 (CHO) registered an IN VITRO ACTIVITY U/mg X10E6 in test [1] of 4.1e+07 U/mg.

mpl ligand 1-183 (N16) showed an In Vitro Activity (units/ml) in test [2] of 9280 units/ml. In test [2], mpl ligand 1-191 (N17) showed an In Vitro Activity (units/ml) of 11 units/ml.

In test [2], mpl ligand 1-199 (N31) yielded an In Vitro Activity (units/ml) of 19000 units/ml and a Specific Activity (units/ ng) of 122 units/ng.

For “mpl ligand analog N3 [Asn^25] mpl ligand 1-174”, in test [1], the In Vitro Activity (units/ml) was determined as 636 units/ml and the Specific Activity (units/ ng) worked out at 344 units/ng. In test [1], “mpl ligand analog N4 [Asn^30, Thr^32] mpl ligand 1-174” registered an IN VITRO ACTIVITY U/mg X10E6 of 6e+07 U/mg, an In Vitro Activity (units/ml) of 8830 units/ml and a Specific Activity (units/ ng) of 232 units/ng. In test [1], “mpl ligand analog N5 [Asn^38, Thr^40] mpl ligand 1-174” yielded an In Vitro Activity (units/ml) of less than 10 units/ml and a Specific Activity (units/ ng) of less than 8 units/ng. In the same order, the values of “mpl ligand analog N6 [Asn^86] mpl ligand 1-174” are less than 10 units/ml and less than 22 units/ng.

With “mpl ligand analog N7 [Asn^82, Ala^83] mpl ligand 1-174”, in test [1], the In Vitro Activity (units/ml) was 2660 units/ml and 3080 units/ml; the Specific Activity (units/ ng) was 443 units/ng and 655 units/ng. In test [1], “mpl ligand analog N9 [Asn^92] mpl ligand 1-174” gave an In Vitro Activity (units/ml) of 1970 units/ml and a Specific Activity (units/ ng) of 188 units/ng. As to “mpl ligand analog N10 [Asn^120, Thr^122] mpl ligand 1-174”, in test [1], the In Vitro Activity (units/ml) was 5940 units/ml and 9690 units/ml; the Specific Activity (units/ ng) is 291 units/ng and 288 units/ng. In test [1], “mpl ligand analog N11 [Ser^36, Asn^38, Thr^40] mpl ligand 1-174” displayed an In Vitro Activity (units/ml) of less than 10 units/ml and a Specific Activity (units/ ng) of less than 8 units/ng. In test [1], “mpl ligand analog N13 [Asn^53, Thr^55] mpl ligand 1-174” displayed an In Vitro Activity (units/ml) of 18000 units/ml and a Specific Activity (units/ ng) of 269 units/ng.

“mpl ligand analog N14 [Asn^58, Thr^60] mpl ligand 1-174”: in test [1], the In Vitro Activity (units/ml) was determined as 4850 units/ml and the Specific Activity (units/ ng) was determined as 271 units/ng.

For “mpl ligand analog N15 [Asn^30, Thr^32, Asn^120, Thr^122] mpl ligand 1-174”, in test [1], the IN VITRO ACTIVITY U/mg X10E6 was 9.2e+07 U/mg, the In Vitro Activity (units/ml) was 6420 units/ml and the Specific Activity (units/ ng) was determined as 247 units/ng. In test [2], this substance came in with an In Vitro Activity (units/ml) of 7000 units/ml and a Specific Activity (units/ ng) of 156 units/ng. In test [2], “mpl ligand analog N18 [Asn^23, Ser^25] mpl ligand 1-174” returned an In Vitro Activity (units/ml) of 5 units/ml and a Specific Activity (units/ ng) of 2.5 units/ng. Substance “mpl ligand analog N20 [Asn^39, Ser^41] mpl ligand 1-174” returned an In Vitro Activity (units/ml) in test [2] of less than 10 units/ml. In test [2], “mpl ligand analog N21 [Asn^54, Ser^56] mpl ligand 1-174” came in with an In Vitro Activity (units/ml) of 4380 units/ml and a Specific Activity (units/ ng) of 146 units/ng. In test [2], “mpl ligand analog N22 [Asn^52, Thr^54] mpl ligand 1-174” displayed an In Vitro Activity (units/ml) of 856 units/ml and a Specific Activity (units/ ng) of 428 units/ng.

In test [2], “mpl ligand analog N23 [Asn^55'(i), Thr^57] mpl ligand 1-174” yielded an In Vitro Activity (units/ml) of 1060 units/ml and a Specific Activity (units/ ng) of 96 units/ng. With “mpl ligand analog N24 [Asn^57, Ser^59] mpl ligand 1-174”, in test [2], the In Vitro Activity (units/ml) was determined as 458 units/ml and the Specific Activity (units/ ng) turned out to be 86 units/ng. The matching figures for “mpl ligand analog N25 [Asn^81, Thr^83] mpl ligand 1-174”: 123 units/ml and 559 units/ng. In test [2], “mpl ligand analog N26 [Asn^118, Ser^120] mpl ligand 1-174” came in with an In Vitro Activity (units/ml) of 96 units/ml and a Specific Activity (units/ ng) of 106 units/ng.

Regarding “mpl ligand analog N27 [Asn^119, Ser^121] mpl ligand 1-174”, in test [2], the In Vitro Activity (units/ml) stood at 338 units/ml and the Specific Activity (units/ ng) worked out at 75 units/ng.

In test [2], “mpl ligand analog N29 [Asn^30, Ser^32, Asn^120, Ser^122] mpl ligand 1-174” showed an In Vitro Activity (units/ml) of 1630 units/ml and a Specific Activity (units/ ng) of 108 units/ng. In test [2], “mpl ligand analog N30 [Thr^163, Asn^164] mpl ligand 1-174” came in with an In Vitro Activity (units/ml) of 15600 units/ml and a Specific Activity (units/ ng) of 122 units/ng. For “mpl ligand analog N33 [Asn^30, Thr^32, Asn^120, Thr^122, Asn^55'(i), Thr^57] mpl ligand 1-174”, in test [2], the In Vitro Activity (units/ml) worked out at 10100 units/ml and the Specific Activity (units/ ng) stood at 129 units/ng. In the case of “mpl ligand analog N34 [Asn^30, Thr^32, Asn^55'(i), Thr^57, Thr^163, Asn^164] mpl ligand 1-174”, in test [2], the In Vitro Activity (units/ml) is 13500 units/ml and the Specific Activity (units/ ng) stood at 120 units/ng. For the substance “mpl ligand analog N35 (N4+N23+N30 changes in mpl ligand 1-199)”, in test [2], the In Vitro Activity (units/ml) was found to be 13100 units/ml and the Specific Activity (units/ ng) came to 76 units/ng. In the case of “mpl ligand analog N36 [Asn^55, Thr^57] mpl ligand 1-174”, in test [2], the In Vitro Activity (units/ml) stood at 5810 units/ml and the Specific Activity (units/ ng) came to 121 units/ng. With “mpl ligand analog N37 [Asn^56] mpl ligand 1-174”, in test [2], the In Vitro Activity (units/ml) was 4500 units/ml and the Specific Activity (units/ ng) came out at 141 units/ng. In the same order, the values of “mpl ligand analog N38 [Thr^163, Asn^164, Thr^166] mpl ligand 1-174” are 3900 units/ml and 156 units/ng. As to “mpl ligand analog N39 [Asn^30, Thr^32, Asn^120, Thr^122, Asn^55, Thr^57, Thr^163, Asn^164, Thr^166] mpl ligand 1-174”, in test [2], the In Vitro Activity (units/ml) was 17700 units/ml and the Specific Activity (units/ ng) stood at 139 units/ng. As for “mpl ligand analog N40 (N4+N10+N36+N38 changes in mpl ligand 1-199)”, in test [2], the In Vitro Activity (units/ml) amounted to 19700 units/ml and the Specific Activity (units/ ng) came out at 147 units/ng.
